Experiment: yeast display, Sf9 membrane polyspecificity reagent, FACS + sequencing; frameworks hold sequencing errors
How it was run: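 Nanobodies from a synthetic yeast display library (Saccharomyces cerevisiae BJ5465), induced 36–48 hours with galactose, were stained 1 hour at 4 °C with 10% biotinylated, detergent-solubilized Sf9 membrane reagent, enriched on streptavidin microbeads, then FACS-sorted. Anti-HA (expression) and streptavidin (reagent binding) fluorescence set low and high (top ~1%) gates. Polyreactivity labels come from the gate of origin. Genes were colony-PCR amplified, MiSeq 2 × 250 sequenced and filtered by CDR length.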

Sequence	polyreactivity (PSR sort gate)
QFQLVESGRGLVQAGGSLRLICAASGSIFIPYAMGWYRQAPGKERELVAAISSSGSTYYADSVKGRFTISRDNAKNTVYLQMNSLKPEDTAVYYCAAERHYSYSSYDYWGQGTQVTVSS	low polyreactivity
QFQLVESGRGLVQAGGSLRLSCAASGRIFSYNTLGWYRQAPGKERELVAAITNNGGSTYYADSVKGRFTISRDNAKNTVYLQMNSLKPEDTAVYYCNRDRYPFYYAYNYWGQGTQVTVSS	low polyreactivity
QFQLVESGRGLVQAGGSLRLSCAASGRTFTYYAMGWYRQAPGNERELVAAIRYTGGSTHYADSVKGRFTISRENAKNTVYFQMNSLKPEDTAVYYCADRRAYTRGGTVYFGYYYWGQGTQVTVSS	high polyreactivity
QFQLVESGRGLVQAGGSLRLSCAASVRIFRGYAKGWYRQAPGKEREFVAANTKNGGSTYYADSVKGRFTISRDYAKNTVYLQMNSLKPEDTAVYYCAVRAWEPYTGKSDYWGQGTQVTVSS	low polyreactivity
QFQLVESGVGLVQAGGSLRLSCAASVRINYAYAMGWYRQTPGKERELVAAISTRGGNTYYADSVKGRFTISRDNAMNTVYLQINSLIPEETEVYYCNALSVSRRFGYDSWGQGTQVTVSS	high polyreactivity
QFQLVESVGGLFQAGGSLRLSCDASGIIFIGNAMGWYRQAPGKERELVAAISRRGGRTYYADSVKGRFTISRDNAKNTVYLQMNSLKPEDTAVYYCAKRYYSYGKSGYYYWGQGTQVTVSS	high polyreactivity
QFQLVESVGGLVQAGGSLRLSCAASGRTGVNAMGWYRQAPRKERELVAAINNGDSTYYADSVKGRFTISRDNAKNTVYLQMNSLKPEDTAVYYCAARSALYPKYESWGQGTQVTVSS	low polyreactivity
QFQLVESVGGLVQAGGSLRLSCAASGYIFRHYAMGWYRQAPGKERELVAAISGRGGSTYYADSVKGRFTISRDNAKNTVYLQMNSLKPEDTAVYYCAKDRKAVGDFYYWGQGTQVTVSS	high polyreactivity
QFQLVESVGGLVQAGGSLRLTCAASGRIFLNYDMGWYRQEPGKDRELVAAITTGGSTYADSVKGRFTISRDNAKNTVYLQMNSLKAEDTAVYYCANRDRNKRDNWGQGTQVTGSS	low polyreactivity
QFQLVESVRGLFQAGGSLRLSCAASGSIFHPYGMGWYREDPVKERELVAAISSSGGDTYYADSVKGRFTISRDNAKNTVYLQMNSLKPEDTAVYYCATDHLDSYSVPGIGKHDYWGQGTQVTVSS	low polyreactivity
QFQLVESWVGLVQAGGSLRLSCAASGSTFPYYAIGWYRQAPGKERELVASIRKRGGGTYYADSVKGRFTISRDNAKNTVYLQMNSLKPEDTAVYYCAVRVYQFRFTGYDYWGHGTQVTVSS	high polyreactivity
QGKRVESGRGLVQAGGILRLSCAASGRTFYYYAMGWYRQSPGKERELVASITWSGGSTYYADSVKGRFTISRDNAKNTVYLQMNSLKPEDTAVYYCAARFVYYGVDYWGQGTQVTGSS	high polyreactivity
QGLLVQSGGGLVQAGGSLRLSCAASGFTFRFYAMLWYRQAPGNERELVAAISSTGSTNYADSVKARCTISRDNAKNTVYLQKNSLKPEDTAVYYCNTDYYNRYYDWLIWYYYWGQGTQVTVSS	high polyreactivity
QGQHVESGGGLVQAGGSLRLSCAASGLTFWVYAMGWYRQPRGKERELVAVITNGGRTNYADSVKGRFTISRDNAKNTVYLLMNSLKPEDSAVYYCARPNLLSGDYWGQGTQVTVSS	high polyreactivity
QGQHVETGGGLVQAGCTLRLSCAASGFTCGNYAMGWYRQAPGKGRELVAAIDSDGSTDYADAVKGRFTISRDNAKNTVYLQMNSLKPEDTAVYYCAARFDYGPRGCDYWGPGTQVTVSS	low polyreactivity
QGQIVESWGGLVQAGGSLRLSCAASGTFFTYMGWYRQAPGKERELVAAIRNGGSTNYADSVKGRCTISGDNAKNTVYLQMHSLKPEDTAVYYCAARVTYSRGYRGGSRTKYDSWGQGTQVTVSS	low polyreactivity

Sequence	polyreactivity (PSR sort gate)
QGQLVESAGGLVQAGGSLRLSCAAYGRIFGINAMGWYRQAPGKERELVAASTGGGSTYADSVKGRVTISRDNAKNTVYLHMNSLKPEATAVYYCAARKIWSSIAYYYWGQGTQVTVSS	low polyreactivity
QGQLVESGGALVQAGGSLRLSCAASGFILPIYAMAWYRQAPGKEREIVAAITWTGGSTYYADSVKGRFTISRDNAKNTVYLQMISLKPEDTAVYYCNVVSDIRLYYRYAYDYWGQGTQVTVSS	high polyreactivity
QGQLVESGGALVQAGGSLRLSCAASGGTFFYYVMGWYRQAPGQERELVAAITGAGGSTYYADSVKGRFTSSRDNAKNTVYLQMNSLKPEDTAVYYCAADVSFTQSDGRLAEYGYWGQGTQVTVSS	low polyreactivity
QGQLVESGGGEVQAGGSLRLSCAASGFTFGSNAMGWYRPAPGKERELVAAISSTGSTYYADSVKGRFTLSRDNAKNTVYVQMNSLKPEDPAVYYCNADSDTPRYDYWGQGTQVTVSS	low polyreactivity
QGQLVESGGGLGQAGGSLRLSCAASGSIFQPNDMGWYRQAPGKERELVATISTGGTTNYADSVKGRFTISRDNAKNTVYLQMNSLKPDDTAVYYCATDRTFTISNYDYWGQGTQVTVSS	low polyreactivity
QGQLVESGGGLVHAGVSLRLSCAASGSTFQPYAMGWNRQAPGKERELVAAINWSGGGTYYADSVKGRFTISRDNAKNTVYLQMNSLKPVDTAVYYCAAEVYTYWALNTWRYDYWGQGTQVTVSS	high polyreactivity
QGQLVESGGGLVQAGASLRLSCAASGFIFAHYTMGWYRQAPGKARELVAAITRAGGSTFYADSVKGRFTISRDNAKNTVYLQRNSLKPEDTAVYYCNRGNRWNFDSWGQGTQVTVSS	high polyreactivity
QGQLVESGGGLVQAGGILLLSCAASGIIFLYYAMGWYRQAPGKERELVAAITSGGSTYYADSVKGRFTISRDNAKNTVYLQMNSLKPEDTAVYYCNAPYHGREYEWGQGTQVTVSS	high polyreactivity
QGQLVESGGGLVQAGGNLRLSCAASGSIFSDYTMGWYRQAPGKERELVAVITLSAGSTYYADSVKGRFTISRDNAKNTVYLQMNSLKPEDTAVYYCAADGWYYFGSGVFEYDYWGHGTQVTVSS	low polyreactivity
QGQLVESGGGLVQAGGSLRISCAASGRIYRINAMGWYRQAPGKERELVANITSGGGSTYADSVKGRFTISRDNAKNTVYLQMNSRKPEDTAVYYCAARSRIGRYTYDYWGQGTQVTVSS	high polyreactivity
QGQLVESGGGLVQAGGSLRLSCAASAFIFDDNTMGWYRQAPGKERELGAAISYSAGSTYYADSVKGRFTISRDNAKNTVYLQMNSLKPEDTAVYSCAAQHYWVTSYLSSYDYWGQGTQVTLSS	low polyreactivity
QGQLVESGGGLVQAGGSLRLSCAASGFIFRYYTMGWYRQAPGKERELVATITSGGSTYYADSVKGRFTISRDNAKNTVYLQMNSLKPEDTAVYYCNADTLGGKYVYQDRRGFDYWGQGTQVSVSS	high polyreactivity
QGQLVESGGGLVQAGGSLRLSCAASGFIFVVYAMGWYRQAPGKERELVAAITFSGGSTYYADSVKGRFTISRDNAKNTVYLQMISLKPEVTAVYYCAAAEHDREFDSWGHGTQVTVSS	low polyreactivity
QGQLVESGGGLVQAGGSLRLSCAASGFTFQYYAMGWSRQAPGKERELVAAISWSGGRTYYADSVKGRFTISRDNAKNTESLQMNSLKPEDTAVYYCAASYIVYPARYEDEGDYWGQGTQVTVSS	high polyreactivity
QGQLVESGGGLVQAGGSLRLSCAASGGIFLGNAMGWYRQAPGKERELVASITRGGDTSYADSVKGRFTISRDNAKNTVYLQMNCLKPEDTAVYYCNADYYSVVEYDYWGQGTQLTVSS	low polyreactivity
QGQLVESGGGLVQAGGSLRLSCAASGITFGDNAMGWYRQAPGKERELVAAISSGGSTDYADSVKGRFTISRDNAKNTVYLQMNSLKPEDTAVYYCAFDWVSVPEYDYWGQGTQVTVSS	low polyreactivity

From the nanobody polyreactivity screen of Harvey et al. (2022)
